In the Immune Epitope Database (IEDB):

Assays:
Assay in all cases: IEDB peptide-MHC binding, purified MHC/competitive/radioactivity; filed as Kd, often an IC50 or EC50 that approximates it; ≥ and ≤ were set here for values at or beyond the usual limits of such assays
HLA-A*11:01 = target: HLA-A*11:01
HLA-A*68:01 = target: HLA-A*68:01
HLA-A*31:01 = target: HLA-A*31:01
HLA-A*03:01 = target: HLA-A*03:01
HLA-A*33:01 = target: HLA-A*33:01
HLA-A*02:06 = target: HLA-A*02:06
HLA-A*02:03 = target: HLA-A*02:03
HLA-A*02:02 = settings: source organism: Vaccinia virus WR
[1] = source organism: Vaccinia virus WR
[2] = source organism: Vaccinia virus Copenhagen
[3] = source organism: SARS coronavirus Tor2
[4] = source organism: Mammarenavirus brazilense
[5] = source organism: Mammarenavirus whitewaterense
[6] = source organism: Dengue virus 4 Philippines/H241/1956
[7] = source organism: Mammarenavirus lassaense
[8] = source organism: Mammarenavirus guanaritoense
[9] = source organism: Mammarenavirus juninense

With QFVDINRNNK the Kd (HLA-A*11:01; [1]) was 662 nM, the Kd (HLA-A*68:01; [1]) was 171 nM and the Kd (HLA-A*31:01; [1]) was 4.52 nM. It also gave a Kd (HLA-A*03:01; [1]) of 1880 nM and a Kd (HLA-A*33:01; [1]) of 763 nM.

In the case of QLMYALEPR, the Kd (HLA-A*11:01; [2]) is reported as 2460 nM, the Kd (HLA-A*68:01; [2]) is reported as 2950 nM and the Kd (HLA-A*31:01; [2]) is reported as 12800 nM. It also gave a Kd (HLA-A*03:01; [2]) of 15200 nM and a Kd (HLA-A*33:01; [2]) of 17300 nM.

QLMYDIINSV was tested, and the Kd (HLA-A*02:06; [1]) was 5.61 nM, the Kd (HLA-A*02:03; [1]) was 0.139 nM and the Kd (HLA-A*02:02) was 1.87 nM.

In the case of QLPQGTTLPK, the Kd (HLA-A*11:01; [3]) is reported as 396 nM, the Kd (HLA-A*68:01; [3]) is reported as 317 nM and the Kd (HLA-A*31:01; [3]) is reported as 8640 nM. For the same sequence, the Kd (HLA-A*03:01; [3]) was 52.5 nM and the Kd (HLA-A*33:01; [3]) was ≥ 37000 nM.

With QQLCTMERT the Kd (HLA-A*02:06; [1]) was 929 nM, the Kd (HLA-A*02:03; [1]) was 4520 nM and the Kd (HLA-A*02:02) was ≥ 77800 nM.

In the case of QTQTYNIGK, the Kd (HLA-A*11:01; [1]) is reported as 7.03 nM, the Kd (HLA-A*68:01; [1]) is reported as 8.83 nM and the Kd (HLA-A*31:01; [1]) is reported as 316 nM. For the same sequence, the Kd (HLA-A*03:01; [1]) was 143 nM and the Kd (HLA-A*33:01; [1]) was 2620 nM.

With RAIMATIQR the Kd (HLA-A*11:01; [3]) was 90.9 nM, the Kd (HLA-A*68:01; [3]) was 72 nM and the Kd (HLA-A*31:01; [3]) was 45.7 nM. It also gave a Kd (HLA-A*03:01; [3]) of 2720 nM and a Kd (HLA-A*33:01; [3]) of 7140 nM.

RALKYDFNH gave a Kd (HLA-A*11:01; [4]) of 4370 nM, a Kd (HLA-A*68:01; [4]) of 6970 nM and a Kd (HLA-A*31:01; [4]) of 65.2 nM. It also gave a Kd (HLA-A*03:01; [4]) of 5700 nM and a Kd (HLA-A*33:01; [4]) of 7170 nM.

Sequence RLATAIAGA has a Kd (HLA-A*02:03; source organism: Dengue virus 3 Martinique/1243/1999) of 11.5 nM.

RLLHCVTESY was tested, and the Kd (HLA-A*11:01; [1]) was 40.2 nM, the Kd (HLA-A*68:01; [1]) was 598 nM and the Kd (HLA-A*31:01; [1]) was 31.3 nM. For the same sequence, the Kd (HLA-A*03:01; [1]) was 72.7 nM and the Kd (HLA-A*33:01; [1]) was 6940 nM.

For RNPYENVLYK, the Kd (HLA-A*11:01; [5]) was 1500 nM, the Kd (HLA-A*68:01; [5]) was 3490 nM and the Kd (HLA-A*31:01; [5]) was ≥ 28800 nM. The Kd (HLA-A*03:01; [5]) was 2310 nM and the Kd (HLA-A*33:01; [5]) was ≥ 70000 nM.

RQQLEDIFM was tested, and the Kd (HLA-A*02:06; [1]) was 944 nM, the Kd (HLA-A*02:03; [1]) was ≥ 26900 nM and the Kd (HLA-A*02:02) was 5730 nM.

RTTWAFCEV showed a Kd (HLA-A*02:06; [6]) of 23.1 nM.

Work on SICSTMTNR yielded a Kd (HLA-A*11:01; [3]) of 13 nM, a Kd (HLA-A*68:01; [3]) of 46.4 nM and a Kd (HLA-A*31:01; [3]) of 1.08 nM. For the same sequence, the Kd (HLA-A*03:01; [3]) was 864 nM and the Kd (HLA-A*33:01; [3]) was 42 nM.

SIPISELSR showed a Kd (HLA-A*11:01; [1]) of 125 nM, a Kd (HLA-A*68:01; [1]) of 11.2 nM and a Kd (HLA-A*31:01; [1]) of 3720 nM. For the same sequence, the Kd (HLA-A*03:01; [1]) was ≥ 24600 nM and the Kd (HLA-A*33:01; [1]) was 9740 nM.

SLFKNVRLLK showed a Kd (HLA-A*11:01; [1]) of 13.2 nM, a Kd (HLA-A*68:01; [1]) of 335 nM and a Kd (HLA-A*31:01; [1]) of 118 nM. It also gave a Kd (HLA-A*03:01; [1]) of 5.13 nM and a Kd (HLA-A*33:01; [1]) of 2210 nM.

SLLKTHRMCK was tested, and the Kd (HLA-A*11:01; [3]) was 39 nM, the Kd (HLA-A*68:01; [3]) was ≥ 23300 nM and the Kd (HLA-A*31:01; [3]) was 452 nM. For the same sequence, the Kd (HLA-A*03:01; [3]) was 13.4 nM and the Kd (HLA-A*33:01; [3]) was 6920 nM.

With STTDAEACY the Kd (HLA-A*11:01; [1]) was 432 nM, the Kd (HLA-A*68:01; [1]) was 163 nM and the Kd (HLA-A*31:01; [1]) was ≥ 75400 nM. The Kd (HLA-A*03:01; [1]) was ≥ 47800 nM and the Kd (HLA-A*33:01; [1]) was 17400 nM.

Sequence SVSGDLILEI has a Kd (HLA-A*02:06; source organism: Dengue virus 1 Brazil/97-11/1997) of 89.1 nM.

For TAIKEVVMAY, the Kd (HLA-A*11:01; [1]) was 1110 nM, the Kd (HLA-A*68:01; [1]) was 317 nM and the Kd (HLA-A*31:01; [1]) was 4280 nM. For the same sequence, the Kd (HLA-A*03:01; [1]) was 4430 nM and the Kd (HLA-A*33:01; [1]) was ≥ 21400 nM.

TCQGSEDIK was tested, and the Kd (HLA-A*11:01; [7]) was 15100 nM, the Kd (HLA-A*68:01; [7]) was ≥ 30000 nM and the Kd (HLA-A*31:01; [7]) was ≥ 61300 nM. For the same sequence, the Kd (HLA-A*03:01; [7]) was ≥ 78000 nM and the Kd (HLA-A*33:01; [7]) was ≥ 77700 nM.

TLFIDRGSIK showed a Kd (HLA-A*11:01; [2]) of 32.4 nM, a Kd (HLA-A*68:01; [2]) of 40.9 nM and a Kd (HLA-A*31:01; [2]) of 8010 nM. It also gave a Kd (HLA-A*03:01; [2]) of 12.4 nM and a Kd (HLA-A*33:01; [2]) of 4650 nM.

TMRIYCSLFK showed a Kd (HLA-A*11:01; [1]) of 0.21 nM, a Kd (HLA-A*68:01; [1]) of 26.7 nM and a Kd (HLA-A*31:01; [1]) of 1.78 nM. It also gave a Kd (HLA-A*03:01; [1]) of 1.18 nM and a Kd (HLA-A*33:01; [1]) of 93.5 nM.

TNFESFTVK was tested, and the Kd (HLA-A*11:01; [8]) was 1440 nM, the Kd (HLA-A*68:01; [8]) was 24.3 nM and the Kd (HLA-A*31:01; [8]) was 270 nM. For the same sequence, the Kd (HLA-A*03:01; [8]) was 365 nM and the Kd (HLA-A*33:01; [8]) was ≥ 77700 nM.

For TQSRDLEDFK, the Kd (HLA-A*11:01; [3]) was 12500 nM, the Kd (HLA-A*68:01; [3]) was ≥ 29000 nM and the Kd (HLA-A*31:01; [3]) was 14600 nM. For the same sequence, the Kd (HLA-A*03:01; [3]) was 19300 nM and the Kd (HLA-A*33:01; [3]) was ≥ 70000 nM.

TVFFTASLFL gave a Kd (HLA-A*11:01; [9]) of 482 nM, a Kd (HLA-A*68:01; [9]) of 901 nM and a Kd (HLA-A*31:01; [9]) of 7220 nM. For the same sequence, the Kd (HLA-A*03:01; [9]) was 1330 nM and the Kd (HLA-A*33:01; [9]) was ≥ 70000 nM.

VADLSARNK gave a Kd (HLA-A*11:01; [1]) of 153 nM, a Kd (HLA-A*68:01; [1]) of 1120 nM and a Kd (HLA-A*31:01; [1]) of 3030 nM. For the same sequence, the Kd (HLA-A*03:01; [1]) was 214 nM and the Kd (HLA-A*33:01; [1]) was 11700 nM.

Work on VAFELWAKR yielded a Kd (HLA-A*11:01; [3]) of 3270 nM, a Kd (HLA-A*68:01; [3]) of 23.4 nM and a Kd (HLA-A*31:01; [3]) of 76.9 nM. The Kd (HLA-A*03:01; [3]) was 9440 nM and the Kd (HLA-A*33:01; [3]) was 52 nM.

VFKDSFLRK showed a Kd (HLA-A*11:01; [1]) of 216 nM, a Kd (HLA-A*68:01; [1]) of 776 nM and a Kd (HLA-A*31:01; [1]) of 154 nM. The Kd (HLA-A*03:01; [1]) was 322 nM and the Kd (HLA-A*33:01; [1]) was 1880 nM.

In the case of VIILAALFMY, the Kd (HLA-A*11:01; [1]) is reported as 449 nM, the Kd (HLA-A*68:01; [1]) is reported as ≥ 51800 nM and the Kd (HLA-A*31:01; [1]) is reported as ≥ 70000 nM. For the same sequence, the Kd (HLA-A*03:01; [1]) was 2660 nM and the Kd (HLA-A*33:01; [1]) was ≥ 70000 nM.

Work on VILQNAWKV yielded a Kd (HLA-A*02:06; source organism: Dengue virus 2 Jamaica/1409/1983) of 4.45 nM.

Sequence VLDMCAALK has a Kd (HLA-A*11:01; [3]) of 44.9 nM, a Kd (HLA-A*68:01; [3]) of 2520 nM and a Kd (HLA-A*31:01; [3]) of 2350 nM. The Kd (HLA-A*03:01; [3]) was 17.6 nM and the Kd (HLA-A*33:01; [3]) was 13600 nM.

VLFVKKMLPK was tested, and the Kd (HLA-A*11:01; [1]) was 12 nM, the Kd (HLA-A*68:01; [1]) was 2350 nM and the Kd (HLA-A*31:01; [1]) was 1730 nM. The Kd (HLA-A*03:01; [1]) was 7.21 nM and the Kd (HLA-A*33:01; [1]) was 13500 nM.

With WIKDIMTSTR the Kd (HLA-A*11:01; [1]) was ≥ 21200 nM, the Kd (HLA-A*68:01; [1]) was 22.7 nM and the Kd (HLA-A*31:01; [1]) was 301 nM. It also gave a Kd (HLA-A*03:01; [1]) of 2200 nM and a Kd (HLA-A*33:01; [1]) of 64 nM.

For WVLAYMLFTK, the Kd (HLA-A*11:01; [3]) was 32.7 nM, the Kd (HLA-A*68:01; [3]) was 104 nM and the Kd (HLA-A*31:01; [3]) was 1260 nM. The Kd (HLA-A*03:01; [3]) was 24 nM and the Kd (HLA-A*33:01; [3]) was 3950 nM.

For YLSSRAKLA, the Kd (HLA-A*02:03; [6]) was 36 nM.
